The values below come from US20120039878A1 (ELAN PHARMACEUTICALS, published 2012).

Changes are numbered by the printed parent chain.

First the molecules themselves.
T1: peptide 70, CGGHEDTMAD
T1 peptide: CGGHEDTMAD

T2: peptide 66, CGGHEAT
T2 peptide: CGGHEAT

T3: peptide 69, CGGHEDTMA
T3 peptide: CGGHEDTMA

T4: peptide 68, CGGHEDTM
T4 peptide: CGGHEDTM

T5: murine AA amyloid (AA fibrils; amyloid enhancing factor extract, AEF) (mouse)
T5 construct: also called Mouse AA (AEF); murine AA AEF
T5 sequence (P05366 whole entry, looked up): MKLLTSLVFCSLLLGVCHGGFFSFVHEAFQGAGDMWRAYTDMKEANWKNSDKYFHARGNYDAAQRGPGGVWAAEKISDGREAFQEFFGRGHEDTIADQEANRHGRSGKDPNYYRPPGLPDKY

T6: human AA amyloid (human renal AA amyloid extract; AA deposits in human tissue) (human)
T6 construct: also called human AA amyloid extract; human AA amyloid fibrils
T6 sequence (P0DJI8 19-94, looked up): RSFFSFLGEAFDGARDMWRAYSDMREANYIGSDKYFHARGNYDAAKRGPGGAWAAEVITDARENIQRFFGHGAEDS

T7: peptide 65, CGGHADT
T7 peptide: CGGHADT

T8: peptide 71, CGGHED
T8 peptide: CGGHED

B1: murine monoclonal antibody 2A4 (ATCC Accession Number PTA-9662) (antibody, V domains shown)
VH: EVQLVESGGRLVQPKGSLKLSCAASGFTFNTYAMYWIRQAPGKGLEWVARIRSKSNNYAIYYADSVKDRFTIFRDDSQSMLYLQMNNLKTEDTAMYYCVRPYSDSFAYWGQGTLVTVSA
VL: DVVMTQTPLSLPVSLGDQASISCRSSQSLVHSTGNTYLHWYLQKPGQSPKLLIYKVSNRFSGVPDRFSGSGSGTYFTLKISRVEAEDLGVYFCSQSTHVPFTFGGGTKLEIK
notes: Murine IgG2b kappa; Used as hybridoma culture supernatant or as protein A-purified mAb; also called mAb 2A4; 2A4.20.44.77
B2: murine monoclonal antibody 8G9 (antibody, mouse IgG2b, V domains shown)
VH: B1 VH
VL: B1 VL
notes: Murine IgG2b kappa; also called mAb 8G9; 8G9.3.4.51.22
B3: murine monoclonal antibody 7D8 (ATCC Accession Number PTA-9468) (antibody, mouse IgG2b, V domains shown)
VH: B1 VH
VL: B1 VL with Q27L
notes: Murine IgG2b kappa; also called mAb 7D8; 7D8.29.19.47

In one test the target is T1, peptide 70, CGGHEDTMAD
Put plainly: BIAcore, antibody binding to peptides. On the technique in general: In SPR one partner is held on a chip, and binding of the other changes the refractive index at the surface.

Another test concerns the target T2, peptide 66, CGGHEAT. Kind of test: BIAcore, antibody binding to peptides.
Another test concerns the target T3, peptide 69, CGGHEDTMA
Kind of test: BIAcore, antibody binding to peptides.

The target in the next test is T4, peptide 68, CGGHEDTM
Kind of test: BIAcore, antibody binding to peptides.

The target in test [1] is T5, murine AA amyloid (AA fibrils; amyloid …). Kind of test: ELISA, hybridoma culture supernatant on murine AA AEF; not corrected for mAb concentration. From the text:
The interaction of 2A4, 8G9 and 7D8 mAbs with AA amyloid was initially tested by ELISA and the data, given in FIG. 31, analyzed using SigmaPlot (SPSS Inc.). Each point represents the mean±SE (n=3). A culture supernatant from an irrelevant hybridoma was used as a control (Ctrl Culture Sup). […] (In addition, the immunohistochemical reactivity of the day 1 material was greater than the day 2 samples). […] Because of the low signal and high variability found with the culture supernatants and to determine more accurately the relative binding affinity of the mAbs for murine and human AA amyloid fibrils (as well as to provide material for in vivo biodistribution studies) it was necessary to isolate the mAbs by protein A affinity chromatography. The purity of the isolated mAbs was established SDS-PAGE using 10% acrylamide gels under reducing and non-reducing conditions (FIG. 32). Samples in lanes 1-4 treated with mercaptoethanol, lanes 5-9 without. Gel was stained with Coomassie blue: mAb 8G9, lanes 1 and 6; mAb 2A4, lanes 2 and 7; mAb 7D8, lanes 3 and 8; SP2/0 control supernatant, lanes 4 and 9; blank, lane 5. Protein Mr markers (Std) are, form top to bottom: 176, 119, 75, 49, 39, 25 and 19 kDa. The interaction of the purified mAbs with immunizing peptide p#39, control peptide (p#41), murine and human AA extracts were determined by ELISA as described above.
In general terms: ELISA stands for enzyme-linked immunosorbent assay.

For test [2] the target is unchanged. Put plainly: ELISA, purified mAb on mouse AA amyloid extract (AEF). As for the experimental part: (§1) Protein Mr markers (Std) are, form top to bottom: 176, 119, 75, 49, 39, 25 and 19 kDa. The interaction of the purified mAbs with immunizing peptide p#39, control peptide (p#41), murine and human AA extracts were determined by ELISA as described above.
(§2) In contrast, even at the highest concentration of mAb used (100 nM) there was little detectable binding to the p#41 peptide (FIG. 33—Each point represents the mean±SE, (n=3 at each concentration)). […] The calculated EC50 values for the mAbs binding to mouse AA extract were essentially identical to those obtained when the p#39 peptide was used as the substrate (FIG. 34; Table 5). […] Because the EC50 value for 7D8 mAb binding was the lowest of the 3 antibodies tested, Applicants selected this reagent for in vivo co-localization and imaging studies. The 2 amino acid substitutions in the human SAA sequence with respect to the murine protein affected the EC50 values.

Test [3] has as its target T9, synthetic Vλ6 Wil fibrils.
T9 construct: Fibrillar (aggregated) form, sonicated and amine-coupled to a CM-5 chip (about 16,000 RU); also called immobilized Vλ6 Wil fibrils
Kind of test: SPR (BIAcore), mAb at 6.6 nM over immobilized synthetic Vλ6 Wil fibrils. The procedure:
Surface plasmon resonance was used to establish the binding kinetics of several monoclonal antibodies with Vλ6 Wil fibrils and monomer. […] The deflection (expressed in RU) during the binding phase was similar for mAbs 7D8 and 2A4 but was 50% lower for 8G9.
(§3) Sensograms were run in HBS-EP buffer from BIAcore at 20 μL/min in the Fc1 (Vλ6 Wil fibrils) minus Fc-2 (control) mode. Samples containing mAb or mAb plus peptide inhibitors were injected (70 μL) and the sensograms collected using the delayed-wash function for 200 sec. Data were analyzed in the BIAevalutation software, using the 1:1 Langmuir model with mass-action correction.

Test [4] has as its target T6, human AA amyloid (human renal AA …). Put plainly: ELISA, purified mAb on plate-dried human AA amyloid extract. As for the experimental part:
as §1, §2

The target of a further test is T7, peptide 65, CGGHADT. Kind of test: BIAcore, antibody binding to peptides.
The target of the next test is T8, peptide 71, CGGHED. Kind of test: BIAcore, antibody binding to peptides.
Test [5] has as its target B3. Put plainly: BIAcore competition: peptide p41 in solution with mAb 7D8 (6.6 nM) injected over immobilized Vλ6 Wil fibrils. The procedure:
FIG. 28: Binding kinetics of mAb 7D8 to synthetic Vλ6 Wil fibrils in the presence of the p39 and p41 peptides. The interaction of the mAb 7D8 at 6.6 nM with immobilized Vλ6 Will fibrils was measured by BIAcore in the presence of peptides p39 and p41 at 1 or 20 μg/mL.
To assess the specificity of the reaction and ensure that the binding of the mAbs with the fibrils occurred via the classic F(ab)-antigen interaction (as opposed to Fc-mediated binding or non-specific adsorption), binding data were acquired in the presence of the immunogen peptide (p39) at 20 and 1 μg/mL (FIG. 8). […] In the presence of 20 μg/mL p41 peptide, the binding kinetics for mAb 7D8 with Vλ6 Wil fibrils were identical to 7D8 alone.
as §3

A word on the EC50: it is the concentration that produces a half-maximal response. A word on the Kd: it is the concentration at which binding is half-saturated. Consider B1, for which the binding result in the test with peptide 70, CGGHEDTMAD was “no binding”; with peptide 66, CGGHEAT it was “no binding”; with peptide 69, CGGHEDTMA it was “no binding”; in the test with peptide 68, CGGHEDTM, “no binding”. For the same molecule, the “supernatant dilution after which reactivity is absent” value (from here on “supernatant dilution”) in [1] is ~64 fold dilution (1:x). In addition, the figures for the EC50 in [2] and in [4] were 4.09 nM and 26.4 nM, respectively. The equilibrium dissociation constant (Kd) in test [3] was about 1 nM.
For the molecule B2, the “supernatant dilution” value in test [1] is ~64 fold dilution (1:x). For the same molecule, the EC50 was determined as 5.64 nM in [2] and 31.7 nM in test [4]. The molecule also registered a Kd in test [3] of about 1 nM.
On to B3, for which the binding result is given as “no binding” with peptide 70, CGGHEDTMAD; “no binding” in the test with peptide 66, CGGHEAT; “no binding” with peptide 65, CGGHADT; “no binding” with peptide 69, CGGHEDTMA; “no binding” with peptide 68, CGGHEDTM; “no binding” with peptide 71, CGGHED. Besides, in test [1], the “supernatant dilution” value is ~64 fold dilution (1:x). Also, the values for the 50% effective concentration (EC50) in test [2] and in test [4] were 1.84 nM and 13.3 nM, respectively. For the same molecule, the Kd in test [3] was about 1 nM.
Consider GHEDTIADQE (also called p41; p#41) [peptide 41, GHEDTIADQE], for which, in test [5], the binding result is “no binding (tested: 20 µg/mL)”.
